Test results reported in patent US20150299764A1, “IMMOBILISED CYCLIN-DEPENDENT KINASE 4 FUSION PROTEINS AND USES THEREOF” (UNIVERSITE LIBRE DE BRUXELLES, priority 2012, published 2015).

Key:
[1] = target: T1, CDK7AS (mutated version of CDK7) in HCT116K7AS cells (Homo sapiens, UniProt P50613, D92E/F91G); assay: Rb kinase activity of streptavidin-immobilized Avi-tagged cyclin D3/CDK4 fusion from HCT116K7AS cells treated with serum and CDK7AS inhibitor; type: cell-based
T1 construct: These cells express only a mutated version of CDK7 (CDK7AS); endogenous in cells; host or cells: HCT116K7AS cells transduced with the Avi-tagged cyclin D3/CDK4 reporter (HCT116K7AS-V26)
Description: In order to verify if transgenes expressed in HCT116K7AS cells after transduction with the vectors described in Example 8 could be immobilized on streptavidin-coated sepharose beads and were enzymatically active, the HCT116K7AS cells expressing the cyclin D3/CDK4 fusion protein described in the Example 14 were cultivated in 6 cm Petri dishes with 10 ml DMEM medium supplemented with 10% serum, Sodium pyruvate (1 mM), Penicillin (50 U/ml) and Streptomycin (50 μg/ml). These cells express only a mutated version of CDK7 (CDK7AS) inhibitable by bulky ATP analogs such as 1-NMPP1 (Santa Cruz). The cells were rendered quiescent by incubating them for three days in DMEM without serum, but supplemented with biotin (0.1 mM), Sodium pyruvate (1 mM), Penicillin (50 U/ml) and Streptomycin (50 μg/ml). Cells were stimulated to proliferate by adding 10% serum for 5 or 16 hours in the continuous presence of biotin (0.1 mM). As indicated, vehicle (DMSO) or CDK7AS inhibitor (1-NMPP1) were added together with serum for the same time or for an additional pulse of 1 hour. […]
The pRb kinase assay was performed on the cellular extract bound to the streptavidin-coated sepharose beads as described previously (Coulonval et al., supra). […] The phosphorylation on T826 of the pRb fragment was detected using a phospho-specific anti-pRb (T826) antibody (Epitomics). […]

[2] = tested on: 48-kDa fragment (amino acid 773-928) of pRb; assay: pRb kinase assay on HEK293T cell extract bound to streptavidin-coated sepharose beads; type: biochemical; settings: transiently transfected HEK293T cells, P-Rb T826 immunoblot
Description: In order to verify if the transgenes expressed in HEK293T cells after transient transfection could be immobilized on streptavidin-coated sepharose bead and were enzymatically active, HEK293T cells were cultivated and transfected with the indicated plasmids as described in Example 12.
After transfection, cells were washed with PBS and lysed on ice in 1 ml NP-40 lysis buffer as described in Example 11. The homogenized (glass/glass) cellular lysate was sonicated 3 times and stored at −20° C. Equal amount of protein from the defrozen lysates were then incubated for 3 h at 4° C. under slight shaking with 5 μl of streptavidin-coated sepharose beads (GE Healthcare) which had been prewashed three times with NP-40 lysis buffer without inhibitors. After 3 h, beads bound with transgene are washed three times with cold NP-40 lysis buffer without inhibitors before enzymatic activities are measured.
(§1) The pRb kinase assay was performed on the cellular extract bound to the streptavidin-coated sepharose beads as described previously (Coulonval et al., 2003, Exp. Cell Res., 291, 135-149). […] Proteins were resolved by SDS-PAGE and transferred on PVDF membranes (Perkin Elmer) before the phosphorylation on T826 of the pRb fragment was detected using the phosphor-specific pRb (T826) antibody (Thermo Fisher). […]
The pRb kinase assay was performed on the cellular extract bound to the streptavidin-coated sepharose beads (GE Healthcare) as described previously (Coulonval et al., 2003, Exp. Cell Res., 291, 135-149). […] Proteins were resolved by SDS-PAGE and transferred on low fluorescence PVDF membranes (Millipore) before the phosphorylation on T826 of the pRb fragment was detected using a phospho-specific rabbit anti-pRb (T826) antibody (Epitomics). Total GST-Rb load of the membranes was quantitated using the mouse anti-GST antibody (Pierce). […]

[3] = tested on: 48-kDa fragment (aa 773-928) of pRb; assay: pRb kinase assay on MCF7 cell extract bound to streptavidin-coated sepharose beads; type: biochemical
Description: In order to verify if transgenes expressed in MCF7 cells after transduction with the vectors described in Example 8 could be immobilized on streptavidin-coated sepharose bead and were enzymatically active, the MCF7 cells expressing the luciferase or the cyclin D3/CDK4 fusion protein described in the Example 14 were cultivated in 10 cm Petri dishes with 10 ml DMEM medium supplemented with 5% serum, insulin 6 ng/ml, NEAA (Gibco) 0.1 mM, Sodium pyruvate (1 mM), Penicillin (50 U/ml) and Streptomycin (50 μg/ml). The cells were rendered quiescent by incubating them for three days in phenol-free DMEM without serum and insulin, but supplemented with biotin (0.1 mM), NEAA (0.1 mM, Gibco), Sodium pyruvate (1 mM), Penicillin (50 U/ml) and Streptomycin (50 μg/ml). During the last 24 hours, fulvestrant (10 nM) was added to the culture to block estrogen receptor action. Cells were stimulated to proliferate by adding 5% serum, 6 ng/ml insulin and 100 nM β-estradiol in the culture medium for 16 hours in the continuous presence of biotin (0.1 mM). At the end of the culture, cells were washed with PBS and lysed on ice in 1 ml NP-40 lysis buffer as described in Example 10. The homogenized (glass/glass) cellular lysate was sonicated 3 times and stored at −20° C. Equal amounts of protein from the defrozen lysate were then incubated for 3 h at 4° C. under slight shaking with 5 μl of streptavidin-coated sepharose beads which had been prewashed three times with NP-40 lysis buffer without inhibitors. After 3 h, beads bound with transgene were washed three times with cold NP-40 lysis buffer without inhibitors before enzymatic activities were measured.
as §1, with “supra).” for “2003, Exp. Cell Res., 291, 135-149).”, “phospho-specific anti-pRb” for “phosphor-specific pRb”

T1 sequence (P50613 whole entry F91G/D92E, the tested form may be a part): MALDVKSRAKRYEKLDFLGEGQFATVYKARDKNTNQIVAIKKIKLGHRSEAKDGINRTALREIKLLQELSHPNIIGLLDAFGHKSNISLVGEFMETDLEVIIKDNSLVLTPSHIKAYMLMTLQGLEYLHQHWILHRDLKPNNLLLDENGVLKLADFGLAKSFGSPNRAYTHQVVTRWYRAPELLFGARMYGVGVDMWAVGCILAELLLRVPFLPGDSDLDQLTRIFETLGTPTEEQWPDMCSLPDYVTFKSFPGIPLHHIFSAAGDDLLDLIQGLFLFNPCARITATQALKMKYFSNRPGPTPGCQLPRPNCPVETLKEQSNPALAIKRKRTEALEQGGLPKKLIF
T1 sequence (P51946 whole entry partner, the tested form may be a part): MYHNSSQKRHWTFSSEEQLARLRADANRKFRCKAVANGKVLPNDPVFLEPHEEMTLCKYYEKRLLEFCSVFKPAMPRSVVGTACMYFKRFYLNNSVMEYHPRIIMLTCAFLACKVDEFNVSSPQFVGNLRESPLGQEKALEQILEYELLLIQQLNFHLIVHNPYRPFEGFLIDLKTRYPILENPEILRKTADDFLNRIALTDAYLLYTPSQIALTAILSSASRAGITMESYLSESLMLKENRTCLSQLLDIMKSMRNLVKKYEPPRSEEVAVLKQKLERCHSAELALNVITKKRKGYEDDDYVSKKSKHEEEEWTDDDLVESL
T1 sequence (P51948 whole entry partner, the tested form may be a part): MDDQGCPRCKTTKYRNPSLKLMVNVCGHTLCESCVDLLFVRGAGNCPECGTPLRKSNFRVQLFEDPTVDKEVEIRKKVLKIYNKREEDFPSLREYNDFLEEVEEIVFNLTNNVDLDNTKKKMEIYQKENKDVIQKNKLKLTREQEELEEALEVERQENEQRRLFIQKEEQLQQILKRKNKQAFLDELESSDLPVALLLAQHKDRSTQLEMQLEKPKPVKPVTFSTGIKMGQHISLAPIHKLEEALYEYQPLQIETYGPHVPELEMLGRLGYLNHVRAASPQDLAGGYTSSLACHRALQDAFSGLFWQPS

Molecule: CC(C)(C)n1nc(Cc2cccc3ccccc23)c2c(N)ncnc21 [1-NMPP1]
- serum stimulation of Rb kinase activity of the biotinylatable Cyclin D3/CDK4 fusion ([1]; inhibitor added during the last hour of 17 hours serum stimulation, HCT116K7AS (FIG. 12)): severely impaired
- serum induction of Rb kinase activity of the biotinylatable Cyclin D3/CDK4 fusion ([1]; inhibitor present together with serum for 5 hours, HCT116K7AS, P-Rb T826 immunoblot (FIG. 12)): prevented

B1: D3L2K4: cyclin D3 and CDK4 connected by the linker L2, SEQ ID NO. 10 (protein)
chain: MELLCCEGTRHAPRAGPDPRLLGDQRVLQSLLRLEERYVPRASYFQCVQREIKPHMRKMLAYWMLEVCEEQRCEEEVFPLAMNYLDRYLSCVPTRKAQLQLLGAVCMLLASKLRETTPLTIEKLCIYTDHAVSPRQLRDWEVLVLGKLKWDLAAVIAHDFLAFILHRLSLPRDRQALVKKHAQTFLALCATDYTFAMYPPSMIATGSIGAAVQGLGACSMSGDELTELLAGITGTEVDCLRACQEQIEAALRESLREASQTSSSPAPKAPRGSSSQGPSQTSTPTDVTAIHLASKGGGGSLEVLFQPSRMATSRYEPVAEIGVGAYGTVYKARDPHSGHFVALKSVRVPNGGGGGGGLPISTVREVALLRRLEAFEHPNVVRLMDVCATSRTDREIKVTLVFEHVDQDLRTYLDKAPPPGLPAETIKDLMRQFLRGLDFLHANCIVHRDLKPENILVTSGGTVKLADFGLARIYSYQMALTPVVVTLWYRAPEVLLQSTYATPVDMWSVGCIFAEMFRRKPLFCGNSEADQLGKIFDLIGLPPEDDWPRDVSLPRGAFPPRGPRPVQSVVPEMEESGAQLLLEMLTFNPHKRISAFRALQHSYLHKDEGNPE
- Rb kinase activity of the immobilized fusion protein [2]: No difference in Rb-kinase activity
- Rb kinase activity of the immobilized fusion protein ([2]; listed as cyclin D3/CDK4): active
- Rb kinase activity of the immobilized fusion protein ([3]; 16 h after serum/insulin/β-estradiol stimulation of MCF7 cells (FIG. 11B, lane 8)): strongly enhanced
- Rb kinase activity of the immobilized fusion protein ([3]; quiescent MCF7 cells (FIG. 11B, lane 7)): detectable

B2: D3L3K4: cyclin D3 and CDK4 connected by the Prescission-cleavable linker L3, SEQ ID NO. 79 (protein)
chain: B1 chain
- Rb kinase activity of the immobilized fusion protein [2]: No difference in Rb-kinase activity
- Rb kinase activity of the immobilized fusion protein ([3]; stable MCF7 populations cultivated with 5% serum and insulin (FIG. 16)): only detected
